Measured values as given in patent publication US5753621A, “Pulmonary surfactant protein fragments” (Abbott Laboratories, priority 1995, dated 1998).
No end group written: not given here. *: point of attachment. Acm = CC(=O)NC*

What was measured:
Type in all cases: physicochemical
[1] = Adsorption capacity, modified Wilhelmy surface balance; details: measured after three (3) minutes spreading time; peptide 0.5 mg/ml (~2% of solids)
Experimental: (§1) Prior to testing for surface activity, the synthetic fragments were admixed with lipids. A lipid mixture consisting of 68% 1,2-dipalmitoyl-sn-phosphatidylcholine (DPPC), 22% egg phosphatidylglycerol (PG) and 9% palmitic acid on a weight basis was prepared by dissolving the lipids in chloroform:methanol (2:1). The required amount of peptide fragment was dissolved in methanol and heated to 60° C. for 10 minutes. The peptide solution was then added to the lipid mixture prewarmed to 45° C. for ten minutes. The samples were mixed at 45° C. by gentle swirling at 100 revolutions per minute on a Buchi rotary evaporator. The organic solvents were then evaporated at 45° C. by increasing the vacuum in 100 torr increments every five minutes until most of the solvent was removed. Final vacuum was between 150-200 torr. Following evaporation, the solids were then suspended in 10% ethanol prewarmed to 45° C. and which was prepared using deionized distilled water. The suspension was gently mixed with vortexing and placed back under vacuum at 600 torr with a repeat of the vacuum ramping process. Final vacuum for the ethanol removal was 50 torr. Following complete removal of ethanol the suspension was diluted with aqueous 0.15M NaCl at 45° C. to yield an admixture with a phospholipid concentration of 25 mg/ml. The peptide/lipid admixtures were formed at final peptide concentrations of 0.5 mg/ml (equivalent to 2% of solids concentration).
A procedure similar to that described by Notter, et al., Pediatric Res. 16, 515-519 (1982) was employed to determine the absorption rate in the absence of diffusion resistance. The modified Wilhelmy surface balance as described above was used. However, instead of using a Langmuir trough, a round Teflon dish (5.1 cm diameter) was employed. The subphase, 70 ml of 0.15M NaCl, was allowed to equilibrate to 37° C. in the incubator and was continuously stirred with a Teflon coated magnetic stirrer. An aliquot of the peptide/lipid fragment admixture containing 5 mg of total phospholipid was dispersed in 10 ml of 0.15M NaCl by vortexing for 10 seconds. This dispersion was then added to the saline subphase. Surface tension lowering was monitored using a strip chart recorder connected to the electro-balance output.

[2] = Pulsating Bubble Surfactometer (PBS) surface tension; details: after 5 minutes pulsation (100 cycles); 1 mg/ml phospholipid, peptide 2% of phospholipids; 0.15M NaCl; 37° C.; 20 cycles/minute; SD in parenthesis
Experimental: as §1
The PBS equipment (Electronetics, Buffalo, N.Y.) used was essentially equivalent to that described in detail by G. Enhorning, J. Appld. Physiol. 43, 198-203, (1977). Recordings were made of the pressure gradient across the wall of a small air bubble, communicating with ambient air by means of a narrow chimney stack, but otherwise entirely surrounded by a 40 ul volume of the peptide/lipid admixture. The admixture concentration employed for these studies was 1 mg/ml total phospholipid (0.02 mg/ml total peptide) and the diluent was 0.15M NaCl.
Immediately prior to loading the sample chamber, the diluted samples were sonicated for 15 seconds to remove any gas nuclei.
The pressure drop across the air-water interface was measured during pulsation by a pressure transducer, and the corresponding surface tension was determined at minimum and maximum bubble size through the application of Young's law and the Laplace equation. Measurements were all made at 37° C. and the bubble pulsed at 20 cycles/minute to render respectively a maximum (1.1 mm) and a minimum (0.8 mm) bubble diameter. (This compression/expansion corresponds to a 50% change in the surface area of the air-water interface).

[3] = Relative surface activity by dilution studies on the modified Wilhelmy Balance-Langmuir Trough; details: for Mean Minimum Surface Tension, relative peptide concentration 1/2: 1/2 dilution of equimolar stock with lipid mixture; for Mean Minimum Surface Tension, relative peptide concentration 1/2 / Mean Minimum Surface Tension, relative peptide concentration 1/4 / Mean Minimum Surface Tension, relative peptide concentration 1/8 / Mean Minimum Surface Tension, relative peptide concentration 1/16 / Mean Minimum Surface Tension, relative peptide concentration Equimolar / Mean Minimum Surface Tension, relative peptide concentration 2%: 675 ug phospholipid; for Mean Minimum Surface Tension, relative peptide concentration 1/4: 1/4 dilution of equimolar stock with lipid mixture; for Mean Minimum Surface Tension, relative peptide concentration 1/8: 1/8 dilution of equimolar stock with lipid mixture; for Mean Minimum Surface Tension, relative peptide concentration 1/16: 1/16 dilution of equimolar stock with lipid mixture; for Mean Minimum Surface Tension, relative peptide concentration Equimolar: equimolar to 0.5 mg/mL SP-B(53-78); for Mean Minimum Surface Tension, relative peptide concentration Equimolar / Mean Minimum Surface Tension, relative peptide concentration 2%: 445 sq. cm trough; for Mean Minimum Surface Tension, relative peptide concentration 2%: peptide 2% of solids (0.5 mg/ml); for surface activity (in words): summary of Tables 3, 4 and 5
Experimental: For the purpose of this comparison "surface activity" is defined as follows: For any given peptide concentration, the admixture is required to result in a minimum dynamic surface tension of less than 10 dynes/cm for each of seven consecutive expansion/compression cycles.
Initially each of the admixtures was formulated so as to contain an equal number of moles of the individual peptide as is contained in a 0.5 mg/mL admixture of SP-B(53-78). […] Thereafter, each of these admixtures was diluted with the standard lipid mixture as described in Example 4, so as to provide doubling dilutions of the equimolar "parent" stock peptide admixture. The lipid concentration in all cases was maintained at 25 mg/ml.
Assessment of relative surface activity was conducted on the modified Wilhemy-Langmuir Surface Balance. For these studies a standard volume of 27 ul of each admixture, corresponding to a total phospholipid mass of 675 ug, was applied to the Langmuir Trough with maximum dimensions of 445 sq. cm.

[4] = Dynamic surface tension versus compressed surface area, modified Wilhelmy Surface Balance (Langmuir Trough); details: peptide 0.5 mg/ml (~2% of solids) in DPPC:PG:PA 68:22:9; 675 ug phospholipid on 445 sq. cm trough; recorded during seven complete cycles
Experimental: as §1
The dynamic surface tension lowering properties of the peptide/lipid admixtures were studied using a modified Wilhelmy Surface Balance (Langmuir Trough). The instrument consists of an all Teflon trough and movable Teflon ribbon (dam) barrier system which completely contains and defines a variable surface area. Surface area was varied through the use of a constant rate reversible 3-phase motor to drive the Teflon barrier. A Cahn 2000 electrobalance (Cahn Instruments, Cerittos, Calif.) with a sandblasted 1 cm platinum plate and stainless steel hangdown wire was employed to determine the surface tension at the liquid-air interface. The entire apparatus was situated in a thermostated incubator set at 45° C. Surface area-surface tension measurements were made by adding 950 ml of 0.15M NaCl to the trough. Subphase temperature was controlled during the measurements at 36°-38° C.
For each experiment 27 ul of peptide/lipid admixture was applied in a random array of 13 droplets to the surface of the temperature controlled subphase and allowed to spread spontaneously for 3 minutes. (The 27 ul application corresponds to 675 ug of phospholipid). The trough surface area was then cycled from a maximum (445 sq. cm) to a minimum (178 sq. cm) surface area and back to maximum at a cycling rate of 3 cycles/min (compression ratio 2.5:1). The dynamic surface tension versus surface area was recorded for 7 complete compression-expansion cycles for each application.

Row | Substance | Adsorption (equilibrium adsorption surface tension) [1] [dynes/cm] | Surface tension Maximum (maximum bubble size) [2] | Surface tension Minimum (minimum bubble size) [2] | Mean Minimum Surface Tension, relative peptide concentration 1/2 [3] [mN/m] | Mean Minimum Surface Tension, relative peptide concentration 1/4 [3] [mN/m] | Mean Minimum Surface Tension, relative peptide concentration 1/8 [3] [mN/m] | Mean Minimum Surface Tension, relative peptide concentration 1/16 [3] [mN/m] | Mean Minimum Surface Tension, relative peptide concentration Equimolar [3] [mN/m] | Mean Minimum Surface Tension, relative peptide concentration 2% [3] [mN/m] | Surface Tension Maximum [4] [dynes/cm] | Surface Tension Minimum [4] [dynes/cm] | surface activity (in words) [3]
1 | SP-B(66-78): synthesized SP-B peptide fragment, positions 66-78, 13 amino acids (LPQLVCRLVLRCS; not fully specified; cysteine pairing not given here; UniProt P07988 266-278, looked up, fragment) | 47.5 | 61.5 (5.4) dyne/cm | 9.4 (1.4) dyne/cm | 2.8 | 6.7 | 14.9 | 22.0 | 0.6 | 0.7 | 50.7 | 0.7 | –
2 | SP-B(66-78)diLys: SP-B positions 66-78, cysteines 71 and 77 replaced with lysine (LPQLVKRLVLRKS; Pulmonary surfactant-associated protein B; UniProt P07988 266-278, looked up, variant C71K C77K) | 48.9 | 55.1 (6.6) dyne/cm | 1.8 (0.5) dyne/cm | 8.2 | 7.0 | 15.0 | 23.0 | 2.5 | 2.6 | 56.5 | 2.6 | –
3 | SP-B(58-78)diAla: SP-B positions 58-78, cysteines 71 and 77 replaced by alanine (LDTLLGRMLPQLVARLVLRAS; Pulmonary surfactant-associated protein B; UniProt P07988 258-278, looked up, variant C71A C77A) | 39.7 | 52.0 (3.3) dyne/cm | 7.5 (1.2) dyne/cm | 0.3 | 1.5 | 4.7 | 24.1 | 0.0 | 0.2 | 57.0 | 0.2 | unusual surface activity
4 | SP-B(69-78): synthesized SP-B peptide fragment, positions 69-78, 10 amino acids (LVCRLVLRCS; Pulmonary surfactant-associated protein B; UniProt P07988 269-278, looked up, fragment) | 56.5 | 64.0 (5.0) dyne/cm | 27.3 (0.5) dyne/cm | 12.5 | 13.8 | 12.2 | – | 13.3 | 6.3 | 65.0 | 6.3 | –
5 | SP-B(53-78): replica of the 26 residue carboxyl terminal region of native human SP-B (YSVILLDTLLGRMLPQLVCRLVLRCS; Pulmonary surfactant-associated protein B; UniProt P07988 253-278, looked up, fragment) | 47.0 | 56.7 (2.9) dyne/cm | 1.5 (0.6) dyne/cm | 0.6 | 0.5 | 2.0 | 14.5 | 0.7 | 0.1 | 50.4 | 1.1 | –
6 | SP-B(53-78)diAcm: SP-B positions 53-78, cysteines 71 and 77 capped with S-acetamidomethyl (Acm) groups (YSVILLDTLLGRMLPQLVC(Acm)RLVLRC(Acm)S; UniProt P07988 253-278, looked up, fragment) | 47.0 | 54.1 (2.6) dyne/cm | 4.1 (3.1) dyne/cm | – | – | – | – | – | 0.1 | 49.5 | 0.1 | unusual surface activity
